Test results as given in US20240100133A1 (SAINT LOUIS UNIVERSITY, published 2024).

Legend:
[1] = target: T1, Cluster of Differentiation 14 (CD14), human, endogenous in primary human monocytes (human, UniProt P08571 20-345); assay: co-immunoprecipitation with anti-GzmA from lysates of GzmA-treated human monocytes, western blot for CD14
T1 construct: whole, on cells; also called CD14 receptor
T1 sequence (looked up): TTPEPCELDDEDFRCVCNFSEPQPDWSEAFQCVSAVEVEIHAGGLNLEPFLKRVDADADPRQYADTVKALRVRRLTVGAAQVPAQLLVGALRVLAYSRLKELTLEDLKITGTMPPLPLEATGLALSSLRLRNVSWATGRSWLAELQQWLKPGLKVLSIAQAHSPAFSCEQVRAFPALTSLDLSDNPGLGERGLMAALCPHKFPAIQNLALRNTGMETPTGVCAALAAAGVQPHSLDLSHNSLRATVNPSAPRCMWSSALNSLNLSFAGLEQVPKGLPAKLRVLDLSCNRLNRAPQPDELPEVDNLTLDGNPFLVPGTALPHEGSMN

[2] = target: T2, Toll-like Receptor 4 (TLR4), human, endogenous in primary human monocytes (human, UniProt O00206 24-839); assay: co-immunoprecipitation with anti-GzmA from lysates of GzmA-treated human monocytes, western blot for TLR4
T2 construct: whole, on cells
T2 sequence (O00206 24-839): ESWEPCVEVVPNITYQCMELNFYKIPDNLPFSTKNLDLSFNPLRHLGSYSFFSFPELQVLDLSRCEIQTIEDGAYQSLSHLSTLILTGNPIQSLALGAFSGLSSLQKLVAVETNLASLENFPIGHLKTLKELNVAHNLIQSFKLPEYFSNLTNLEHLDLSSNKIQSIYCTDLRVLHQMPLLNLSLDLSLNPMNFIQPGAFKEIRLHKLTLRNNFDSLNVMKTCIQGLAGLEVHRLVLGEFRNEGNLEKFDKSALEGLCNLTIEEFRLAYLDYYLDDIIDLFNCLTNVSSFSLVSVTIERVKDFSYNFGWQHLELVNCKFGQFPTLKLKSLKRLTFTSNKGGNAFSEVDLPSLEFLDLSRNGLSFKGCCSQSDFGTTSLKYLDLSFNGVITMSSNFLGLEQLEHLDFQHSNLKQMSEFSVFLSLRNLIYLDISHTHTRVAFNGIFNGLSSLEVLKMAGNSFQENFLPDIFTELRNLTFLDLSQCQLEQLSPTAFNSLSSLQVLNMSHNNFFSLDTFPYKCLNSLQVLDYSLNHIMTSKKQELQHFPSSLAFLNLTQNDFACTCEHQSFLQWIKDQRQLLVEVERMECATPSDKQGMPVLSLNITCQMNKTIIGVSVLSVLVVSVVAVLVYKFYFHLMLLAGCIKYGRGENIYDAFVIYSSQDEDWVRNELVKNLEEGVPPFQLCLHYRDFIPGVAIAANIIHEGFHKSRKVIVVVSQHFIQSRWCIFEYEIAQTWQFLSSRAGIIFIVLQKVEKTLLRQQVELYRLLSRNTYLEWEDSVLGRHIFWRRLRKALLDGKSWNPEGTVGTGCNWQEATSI

B1: Monomeric Granzyme A C93S, recombinant human, His-tagged (GzmA-C93S) (enzyme)
chain: IIGGNEVTPHSRPYMVLLSLDRKTICAGALIAKDWVLTAAHCNLNKRSQVILGAHSITREEPTKQIMLVKKEFPYPSYDPATREGDLKLLQLMEKAKINKYVTILHLPKKGDDVKPGTMCQVAGWGRTHNSASWSDTLREVNITIIDRKVCNDRNHYNFNPVIGMNMVCAGSLRGGRDSCNGDSGSPLLCEGVFRGVTSFGLENKCGDPRGPGVYILLSKKHLNWIIMTIKGAV
notes: Forms only monomers; also called monomeric GzmA; GzmA-monomer; not shown: His tag
B1: no binding [1]; no binding [2].
